From patent US20220163515 come the findings set out here.

The target in data set [1] is Pumby8_KD_4 (synthetic (from Homo sapiens Pumilio unit 6)) (UniProt Q14671). The data set is described as follows: FP. Particulars: 25 mM Tris-HCl pH 7.5, 0.5 mM EDTA, 50 mM KCl, 0.1 mg/mL BSA; active-fraction corrected.
Data set [2] has as its target Pumby8_KD_3 (synthetic (from Homo sapiens Pumilio unit 6)) (UniProt Q14671). The data set is described as follows: FP. Particulars: 25 mM Tris-HCl pH 7.5, 0.5 mM EDTA, 50 mM KCl, 0.1 mg/mL BSA; active-fraction corrected.

Chain of Pumby8_KD_4 (synthetic (from Homo sapiens Pumilio unit 6)) (Q14671 1028-1063): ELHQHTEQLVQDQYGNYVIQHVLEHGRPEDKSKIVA
Chain of Pumby8_KD_3 (synthetic (from Homo sapiens Pumilio unit 6)) (Q14671 1028-1063): as above

As a reminder, the Kd is the equilibrium constant for the complex coming apart. Read a high Kd as weaker binding. CCAGAAUCAUGUCAGUUCG [KD_2/KD_4 cognate] had a Kd in data set [1] of 0.439 nM.

In data set [2], CCAGAAUUGUAGAUAUUCG [KD_3 cognate] displayed a Kd of 1.34 nM.
